Data on one molecule can be found in patent EP4740958A1 (QILU PHARMACEUTICAL CO., LTD., dated 2026).

For this experiment, the target named is T1, recombinant human CCR8 protein (human, UniProt P51685 1-355, limits assumed).
T1 construct: Recombinant protein fixed on a CM5 chip by amino coupling (about 15 RU); also called human CCR8 recombinant protein
The experiment is described as follows: SPR (Biacore 8K), CCR8 fixed on CM5 chip by amino coupling, antibody 1 nM-31.25 pM as analyte, 1:1 model. For orientation: In SPR one partner is held on a chip, and binding of the other changes the refractive index at the surface.

T1 sequence (P51685 whole entry): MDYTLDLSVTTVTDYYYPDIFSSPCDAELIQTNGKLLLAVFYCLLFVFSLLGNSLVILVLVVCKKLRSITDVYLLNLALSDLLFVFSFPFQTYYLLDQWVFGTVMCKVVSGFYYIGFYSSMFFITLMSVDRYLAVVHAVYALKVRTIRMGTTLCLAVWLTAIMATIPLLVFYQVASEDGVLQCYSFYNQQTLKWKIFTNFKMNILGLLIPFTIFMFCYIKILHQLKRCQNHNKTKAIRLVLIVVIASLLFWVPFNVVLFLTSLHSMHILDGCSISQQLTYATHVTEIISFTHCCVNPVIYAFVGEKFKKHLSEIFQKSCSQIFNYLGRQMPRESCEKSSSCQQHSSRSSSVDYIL

B1: anti-human CCR8 monoclonal antibody J06 (antibody, human IgG1, kappa, V domains shown)
VH: EVQLVESGGGVVQPGRSLRLSCAASGFPFEPFAMNWVRQAPGKGLEWVARIRSKANNYATYYADSVKDRFAISRDNSKRTLYLLMHSLRFEDTAVYYCVRGRENNYGYAMDYWGQGTTVTVSS
VL: DVVMTQSPPSLPVTLGQSASISCRSSQSLLHSNGITYLYWFLQRPGQSPRLLIYRMSNLASGVPDRFSGSGSGTDFTLRISRVEAEDVGVYYCMQHLTYPFTFGIGTKVEIKR
notes: also called J06 preparation; anti-CCR8 Mab 1187
As to B1, the Kd was found to be 7.77 pM, the koff is 0.000131 s⁻¹ and the kon was 1.69e+07 M⁻¹ s⁻¹.

As a reminder, the Kd is a measure of binding affinity in units of concentration. Broadly, the koff is a measure of how fast the partners let go of each other. Usually kon stands for the rate constant with which the complex forms.
